# Assay results from PMC2919855 (Biochemistry, 2010).
# Non-standard residues stand in square brackets, D forms with d. Residues, ends and D or L forms follow the SMILES beside them. No end group written: not given here. *: point of attachment. Proxyl = 3-carboxy-2,2,5,5-tetramethylpyrrolidinyloxy spin label; TOAC = CC1(C)CC(N)(C(=O)O)CC(C)(C)N1[O]; X1 = CC1(C)CC(C(=O)*)C(C)(C)N1[O]; Aib = CC(C)(N)C(=O)O
# Assays:
# [1] = target: T1, rhodopsin in rod outer segments (ROS) (Bos taurus, UniProt P02699); settings: cited from earlier work
# T1 sequence (P02699 whole entry): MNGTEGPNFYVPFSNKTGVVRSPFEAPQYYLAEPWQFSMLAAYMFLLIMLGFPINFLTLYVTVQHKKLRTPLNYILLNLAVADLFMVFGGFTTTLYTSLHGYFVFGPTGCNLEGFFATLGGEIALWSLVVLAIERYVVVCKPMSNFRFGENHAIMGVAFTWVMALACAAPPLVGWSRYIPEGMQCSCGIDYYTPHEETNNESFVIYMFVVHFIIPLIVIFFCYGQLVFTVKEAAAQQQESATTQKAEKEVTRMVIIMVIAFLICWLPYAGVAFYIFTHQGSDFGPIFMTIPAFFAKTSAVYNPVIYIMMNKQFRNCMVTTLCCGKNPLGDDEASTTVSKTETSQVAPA
# [2] = target: photoactivated rhodopsin (R*) in ROS membranes (Bos taurus, UniProt P02699); test: Direct binding by EPR: spectral integration of bound and free peptide components
# Chain of photoactivated rhodopsin (R*) in ROS membranes (P02699 whole entry): as above
# [3] = target: T1, rhodopsin in rod outer segments (ROS); test: Meta II; format: biochemical; settings: result in words
# [4] = target: rhodopsin in rod outer segment (ROS) membranes (UniProt P02699); test: EPR spectroscopy
# Chain of rhodopsin in rod outer segment (ROS) membranes (P02699 whole entry): as above
# [5] = target: rhodopsin in rod outer segment (ROS) membranes (UniProt P02699); test: Meta II stabilization assay
# [6] = target: rhodopsin in rod outer segment (ROS) membranes (UniProt P02699); test: time-resolved EPR after a laser flash
Kd [4],Compound,ability to stabilize the MII state of rhodopsin [3],other results
–,[Aib]K[Aib][Aib]LKDCGLG,–,activity in stabilization of the MII state of rhodopsin [1]: full activity
–,CC(C)C[C@H](NC(=O)[C@H](CC(=O)O)NC(=O)[C@H](CCC(=O)O)NC(=O)[C@H](CC(C)C)NC(=O)[C@@H](NC(=O)C1CC(C)(C)N([O])C1(C)C)C(C)C)C(=O)N[C@@H](CCCCN)C(=O)N[C@@H](CO)C(=O)N[C@@H](CS)C(=O)NC1(C(=O)N[C@@H](CC(C)C)C(=O)N[C@@H](Cc2ccccc2)C(=O)O)CC(C)(C)N([O])C(C)(C)C1 (stereo partly drawn) [Proxyl/TOAC^348-Gtα(340–350)] (X1-VLEDLKSC[TOAC]LF-OH),retained the ability to stabilize the MII state,Kd [2]: 65 µM
4 µM,Proxyl-Gtα(340–350) high-affinity peptide,–,–
–,IKE-TOAC-LKDCGLF [TOAC^343-Gtα(340–350)],retained the ability to stabilize the MII state,–
12.5 µM,TOAC^343-Gtα(340–350) high-affinity peptide,–,Kd [5]: 10 µM; lifetime of binding after the flash (single exponential) [6]: 5.8 ms
–,Proxyl-Gtα(340–350): Gtα(340–350) with Proxyl spin label at the amino terminus (Proxyl-IKENLKDCGLF),retained the ability to stabilize the MII state,–
